Laboratory results: the supplement of paper PMC12764529
± gives the half width of the 95% confidence interval.

assay: folding stability dG unfold (combined trypsin and chymotrypsin); higher = more stable
Procedure, shortened: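 How resistant each design was to proteolysis was captured as K50, inferred by Bayesian fitting of sequencing counts. Unfolding free energy was then derived relative to a sequence-predicted unfolded-state K50 and a shared folded-state K50, per protease or combined. Digestion used trypsin and chymotrypsin at 11 threefold-diluted concentrations plus a no-protease condition, on mini-proteins under 80 residues without cysteine in a PA-tagged cDNA display construct. Designs were kept only when AlphaFold2 dimer inter-PAE was above 15.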

First: SAGGSAVILIPIPPDDPNFWEMIKDFQEEGKPVIIRNPEGEWMVFKPNGPVKPVDSPEQLLEAGITSAGGSA [r15_94_TrROS]
Second: SAGGSAGGSAGGSMTITYDKENKTLTIKLPNGKKVLTVNLENMTPEQLKELAKKLGLEVSAGGSAGGSAGGS [r4_49_TrROS_Hall]
The “folding stability dG unfold” value of the first is lower: 1.04 ± 0.18 kcal/mol for the first, 3.44 ± 0.11 kcal/mol for the second.

Going from “SAGGSAGGSAGMRIVIEVPEDTTVEELAKKLADLGYEVEIRVERDENGRLLVVIEIRPKDSAGGSAGGSAGG [r11_1050_TrROS_Hall]” to “SAGGLNINLPPGQEIELTLQVTHLFNGGNGDFGSMTHTYEIPIKIKPIPPVPKPEVERDPDGNYKVEDSAGG [r13_401_TrROS]”, the “folding stability dG unfold” value falls from 2.8 ± 0.14 kcal/mol to 0.296 ± 0.28 kcal/mol.

Compared with “SAGGMTRVLELTVPVDVIGPEELKALLEALAEDAEVEFEIGPDGLLRVRVTVDVPPDPDAPPDLDGESAGGS [r16_535_TrMRF]”, “SAGGSLKIKIRNPDGMPFKIDVVRYPNHIRIKFKFGNKPVAFMIDPESDTINFRIPGWPFQIEIEPSAGGSA [r2_194_TrROS]” is higher in “folding stability dG unfold” value: 2.33 ± 0.11 kcal/mol for the first, 3.26 ± 0.15 kcal/mol for the second.

First: SAGGGMLLTTTQTITLPNGTLLTVTSTFTLTPPAVPVPVVELDESSIAEYDPATGILTDPSVPTPIPVPSAG [r5_807_JUSTAS]
Second: SAGGKTVVIEAESLEEALAAIEALPPDVKKVVIFNKETGVLVEVTVDPKTGEIKEIKVYKIDPEKGKLSAGG [r13_945_TrROS_Hall]
The “folding stability dG unfold” value of the first is lower: 0.766 ± 0.1 kcal/mol for the first, 2.54 ± 0.12 kcal/mol for the second.

Compared with “SAGGSAGGSITIEIPGASSLEEAIEQAEVVVNEIVKKGYPGKPIKVTVILPGTGEAFTFEVPLESAGGSAGG [r6_237_TrMRF]”, “SAGGSAGGSAGPLTLTATFLSDYNYAVTVTLTFEVDENGNLSVSGEVEIRPVPPLGPGNASAGGSAGGSAGG [r11_728_TrMRF]” is higher in “folding stability dG unfold” value: 2.19 ± 0.12 kcal/mol for the first, 3.72 ± 0.15 kcal/mol for the second.

Compared with “SAGGSAGGSAGGGMTPVTTTTTVTVSPDATPVNFTTPDGTTVTVTPVPSSDTATVTTTVSSAGGSAGGSAGG [r7_796_JUSTAS]”, “SAGGENYTFEMEITIPIPLPNPNGKLKKLPIKVPIEYEYDDPAQRNQAMQNMIMRIIDLALKELGVPSAGGS [r16_339_TrROS]” is higher in “folding stability dG unfold” value: 0.724 ± 0.06 kcal/mol for the first, 1.9 ± 0.16 kcal/mol for the second.

Compared with “SAGGMPREVAKEMIENDKDAKVTFTIYRFPDGPVPSVTVEVIEADVKDPDAFLESVPEGWLVLVEPASAGGS [r16_116_TrMRF]”, “SAKFRVSISYDPPDGYLTIMFRYPNPNQPITPEEIEEIAREILEERGHKVKIDEIHHEGNYFMIKIKLPSAG [r14_556_TrROS]” is higher in “folding stability dG unfold” value: 0.769 ± 0.085 kcal/mol for the first, 2.75 ± 0.2 kcal/mol for the second.

Going from “SAGGSMPKGQEVKIEIEHRRHNGRRYWRVSVEVPNGKDIEIPFDDPEEMPPEMKKQIENLAKEIVKSAGGSA [r2_17_TrROS]” to “SAGGPNFIVKIRIPMRKYERENDPGGKPKWEPVEPQRVEITIIFKGPPEQAKQIREELENHGLEVEPISAGG [r13_452_TrROS]”, the “folding stability dG unfold” value rises from 0.874 ± 0.26 kcal/mol to 2.05 ± 0.18 kcal/mol.

Going from “SAGGSDVKTYTFVGIDPETGELVETTFRVTPLVPPVPVSVSVSLTLDVDPDGNLHLSLSVSVELGGSAGGSA [r2_326_TrMRF]” to “SAGGSAGGSAPPNLKIEIDLQRHPEDDHIFLEMEATYPDDGKELKVMIMINPDDGKIGIMIMSAGGSAGGSA [r18_383_TrROS]”, the “folding stability dG unfold” value falls from 4.37 ± 0.12 kcal/mol to 3.34 ± 0.29 kcal/mol.

Compared with “SAGGSAGGSAGLIVTHPDGGVTTLRLTLTFTFEGPVGPPKTVTFEFTLTVAPNGTEVTLESAGGSAGGSAGG [r11_271_TrMRF]”, “SAGGSAGGSAGGSGMTTTLLEQREFTLPNGEPVRVTVARFPGGEIVTETEDGVVTTDPLSAGGSAGGSAGGS [r4_111_JUSTAS]” is lower in “folding stability dG unfold” value: 4.72 ± 0.27 kcal/mol for the first, 0.159 ± 0.08 kcal/mol for the second.

First: SAGGPGWVTVEFWIPIEPDPNQTRDDVKEKAEEIVHEMAEYHPQFGITNVKVDVDPEEGWVKVSIVWPSAGG [r13_1011_TrROS]
Second: SAGGSVDIKRIEIYHPPDDKIYIRIDAVASPEHPEDPELRKAQAEALRKPVIEELMKKLGIEPEELSAGGSA [r2_306_JUSTAS]
The “folding stability dG unfold” value of the first is higher: 1.49 ± 0.24 kcal/mol for the first, 0.468 ± 0.12 kcal/mol for the second.

First: SAGGSANVQVEQTGDGKIKIEFPWYGAEITLNPKKGDIEVEVLPNYKNGQPPPEDEVKNLAKEILDSAGGSA [r15_735_TrROS]
Second: SAGPADPGFLGTRTVPHPDGVVTVDVYRFAGTRVLITITLPDSTVPVEDPVESEEEALAFADAVVAEVGLSA [r9_758_JUSTAS]
The “folding stability dG unfold” value of the first is lower: 0.739 ± 0.13 kcal/mol for the first, 1.66 ± 0.1 kcal/mol for the second.

First: SASLPPGQVRSLPVDVTIETPEGQPRFTEPATLEPPPRLVVDVALPLPPGEVTITIRLPGPGVTLTIERSAG [r14_280_JUSTAS]
Second: SGLAPGEVVPEKFEREITDPETGKKYKVEVTTEIAPENPVRRVTVTTTPPDGTTTTTEEVIPPGEEYTLESA [r9_88_JUSTAS]
The “folding stability dG unfold” value of the first is higher: 1.42 ± 0.37 kcal/mol for the first, 0.468 ± 0.077 kcal/mol for the second.

Compared with “SAGGSAGGGSMSVSYDPSTGNTITTTTTRSPTPLTTTTTTTTFPDGSTSTSTTTTAAPPPAPTTSAGGSAGG [r6_955_JUSTAS]”, “SAGGSAGGSLKKGEKVKLRARIYEPGGGKLLAELEIEADVGKAEEIAEELRKAFPGYEVEIELSAGGSAGGS [r12_21_TrMRF]” is higher in “folding stability dG unfold” value: 0.761 ± 0.046 kcal/mol for the first, 3.04 ± 0.07 kcal/mol for the second.

First: SSMPLEEIVERVAEELGIPEEELERIESVDPGVVDPSPEGPTRVELRITLRDPHSDTTTEYRVEVEDPGGSA [r9_230_JUSTAS]
Second: SAGGSAGGSAGPEITVVKAPDEGYYYLIKLKVTYTLRDPETTAPLAEFEVEYYFLDRGSASAGGSAGGSAGG [r17_124_TrMRF]
The “folding stability dG unfold” value of the first is lower: -0.501 ± 0.29 kcal/mol for the first, 4.58 ± 0.47 kcal/mol for the second.

First: SAGGSAGGSAGMKVKTDPSSGPTVNKAYLENGTLILTTVTYDPSNGTTSTTTTVVPLSLLSAGGSAGGSAGG [r17_287_JUSTAS]
Second: SAGGEEEAVEKPFYQLPEKKPLKTVPMSREEALALARENPDLGILYAEEDGKLWKVDAETGTIEPLGSAGGS [r16_214_JUSTAS]
The “folding stability dG unfold” value of the first is lower: 0.823 ± 0.21 kcal/mol for the first, 1.46 ± 0.14 kcal/mol for the second.
